Measurements taken from PMC8220723.

Tests used:
[1] = target: FuTraP-hASCT2-d17, human ASCT2 with a deletion of 17 amino acids of region C, fused to AcGFP (human) (UniProt Q15758)
[2] = target: FuTraP-hASCT2-d17, human ASCT2 with a deletion of 17 amino acids of region C, fused to AcGFP (human) (UniProt Q15758); remark: listed apart in the source
[3] = target: wild-type human ASCT2 fused to AcGFP (FuTraP-hASCT2-wt) (human) (UniProt Q15758)
[4] = flow cytometry, AcGFP MFI normalised to iRFP713 MFI; settings: glycan lost; control: wild type (FuTraP-hASCT2-wt)
[5] = infection, dsRed-positive cells by flow cytometry; settings: glycan lost; control: wild type (FuTraP-hASCT2-wt)
[6] = confocal microscopy, AcGFP with membrane dye; settings: glycan lost; control: wild type (FuTraP-hASCT2-wt)

Molecule: Syncytin-1 envelope glycoprotein of the chimeric virus MCAS(Sync1-MSC16)dsRed (cytoplasmic tail shortened to 16 amino acids) (from UniProt Q9UQF0 21-538) (natural protein)
- infection of DF-1/LgBiT cells expressing the FuTraP variant by MCAS(Sync1-MSC16)dsRed, dsRed-positive cells by flow cytometry (reduced sensitivity compared to the wild type) [1]: 1.7%
- spinoculation of cells expressing the FuTraP variant with MCAS(Sync1-MSC16)dsRed, infected (dsRed-positive) cells by flow cytometry [2]: 21%
- spinoculation of cells expressing the FuTraP variant with MCAS(Sync1-MSC16)dsRed, infected (dsRed-positive) cells by flow cytometry [3]: 56%

B1: ASCT2: N212Q (protein)
parent chain: MVADPPRDSKGLAAAEPTANGGLALASIEDQGAAAGGYCGSRDQVRRCLRANLLVLLTVVAVVAGVALGLGVSGAGGALALGPERLSAFVFPGELLLRLLRMIILPLVVCSLIGGAASLDPGALGRLGAWALLFFLVTTLLASALGVGLALALQPGAASAAINASVGAAGSAENAPSKEVLDSFLDLARNIFPSNLVSAAFRSYSTTYEERNITGTRVKVPVGQEVEGMNILGLVVFAIVFGVALRKLGPEGELLIRFFNSFNEATMVLVSWIMWYAPVGIMFLVAGKIVEMEDVGLLFARLGKYILCCLLGHAIHGLLVLPLIYFLFTRKNPYRFLWGIVTPLATAFGTSSSSATLPLMMKCVEENNGVAKHISRFILPIGATVNMDGAALFQCVAAVFIAQLSQQSLDFVKIITILVTATASSVGAAGIPAGGVLTLAIILEAVNLPVDHISLILAVDWLVDRSCTVLNVEGDALGAGLLQNYVDRTESRSTEPELIQVKSELPLDPLPVPTEEGNPLLKHYRGPAGDATVASEKESVM
- expression_or_secretion, percent_of_wt [4]: decreases
- other: receptor-mediated sensitivity to viral infection [5]: no change
- localisation_or_trafficking [6]: no change
